Reference: patent US20220146515A1 (XIAMEN INNODX BIOTECH, published 2022)

Assays:
Assay in all cases: competition ELISA, antibody preincubated with target, AMH-coated plate
[1] = molecular target: T1, AMH truncated antigen 31-45 (human)
T1 peptide: AVGTSGLIFREDLDW
Protocol: (§1) 1. AMH antigen was diluted with carbonic acid buffer (20 mmol/L CB, pH 9.6) and then coated on a polyvinyl chloride plate. In the pretreatment, the antibody purified by the protein A column and the synthesized AMH truncated antigen sequences (see Table 3 for each synthetic sequence) were subjected to proportion incubation (100 ng/ml antibody: 50 ug/ml truncated antigen) for 30 minutes, that were test samples; the control sample was 100 ng/ml antibody: PBS, incubation for 30 minutes, and then the test samples after incubation and the control sample were added to AMH antigen plate and incubated for 30 minutes, the plate was washed for 5 times, added with GAM-HRP (1/5000 dilution) and incubated for 30 minutes, the plate was washed for 5 times, and the substrate was added and incubated for 15 minutes. The values under wavelength of 450/620 were read by microplate reader, and the detected OD values were finally calculated and analyzed. The calculation formula was: (control sample OD value−test sample OD value)/control sample OD value, and the criterion for determination was as follows: more than 90%, which indicated a good competitive effect, showing that the antibody should recognize the epitope.

[2] = molecular target: T2, AMH truncated antigen 51-65 (human)
T2 peptide: QEPLCLVALGGDSNG
Protocol: as §1

[3] = molecular target: T3, AMH truncated antigen 31-41 (human)
T3 peptide: AVGTSGLIFRE
Protocol: as §1

[4] = molecular target: T4, AMH truncated antigen 31-42 (human)
T4 peptide: AVGTSGLIFRED
Protocol: as §1

[5] = molecular target: T5, AMH truncated antigen 33-41 (human)
T5 peptide: GTSGLIFRE
Protocol: as §1

[6] = molecular target: T6, AMH truncated antigen 34-41 (human)
T6 peptide: TSGLIFRE
Protocol: as §1

[7] = molecular target: T7, AMH truncated antigen 35-45 (human)
T7 peptide: SGLIFREDLDW
Protocol: as §1

[8] = molecular target: T8, AMH truncated antigen 36-45 (human)
T8 peptide: GLIFREDLDW
Protocol: as §1

[9] = molecular target: T9, AMH truncated antigen 37-44 (human)
T9 construct: Printed with a blank (LIFR EDLD)
T9 peptide: LIFREDLD
Protocol: as §1

[10] = molecular target: T10, AMH truncated antigen 37-45 (human)
T10 peptide: LIFREDLDW
Protocol: as §1

[11] = molecular target: T11, AMH truncated antigen 41-45 (human)
T11 peptide: EDLDW
Protocol: as §1

[12] = molecular target: T12, AMH truncated antigen 41-46 (human)
T12 peptide: EDLDWP
Protocol: as §1

[13] = molecular target: T13, AMH truncated antigen 41-48 (human)
T13 peptide: EDLDWPPG
Protocol: as §1

[14] = molecular target: T14, AMH truncated antigen 41-49 (human)
T14 peptide: EDLDWPPGS
Protocol: as §1

[15] = molecular target: T15, AMH truncated antigen 42-48 (human)
T15 peptide: DLDWPPG
Protocol: as §1

[16] = molecular target: T16, AMH truncated antigen 43-51 (human)
T16 peptide: LDWPPGSPQ
Protocol: as §1

[17] = molecular target: T17, AMH truncated antigen 36-47 (human)
T17 construct: also called human AMH36-47; AMH3647-27 (Human)
T17 peptide: GLIFREDLDWPP

[18] = molecular target: T18, AMH3647-3 (Hamster sequence) (Hamster)
T18 peptide: GLIFFEDGIWPL

[19] = molecular target: T19, AMH3647-4 (Lemur sequence) (Lemur)
T19 peptide: GLIFHEDWDWLP

[20] = molecular target: T20, AMH3647-6 (Otolemur sequence) (Otolemur)
T20 peptide: GLIFHKDWDWQP

[21] = molecular target: T21, AMH3647-7 (Cat sequence) (Cat)
T21 peptide: GLIFHPDWDWQP

[22] = molecular target: T22, AMH3647-9 (Horseshoe bat sequence) (Horseshoe bat)
T22 peptide: GLIFHQDWDWSP

[23] = molecular target: T23, AMH3647-15 (Guinea pig sequence) (Guinea pig)
T23 peptide: GLIFPEDQVWPP

[24] = molecular target: T24, AMH3647-16 (Degu sequence) (Degu)
T24 peptide: GLIFPEDWVWPP

[25] = molecular target: T25, AMH3647-17 (Chimpanzee sequence) (Chimpanzee)
T25 peptide: GLIFPEDLDWPP

[26] = molecular target: T26, AMH3647-18 (Simum sequence) (Simum)
T26 peptide: GLIFRQDWDWPP

[27] = molecular target: T27, AMH3647-19 (Dog sequence) (Dog)
T27 peptide: GLLFQPDWDWPP

[28] = molecular target: T28, AMH3647-20 (Goat sequence) (Goat)
T28 peptide: TLIFQQDWDWPL

[29] = molecular target: T29, AMH3647-24 (Owl sequence) (Owl)
T29 peptide: GLIFGEDVDWPP

[30] = molecular target: T30, AMH3647-25 (Horse sequence) (Horse)
T30 peptide: GLIFHQDWDWPP

B1: monoclonal antibody C9F2-2 (antibody, V domains shown)
VH: EVQLVESGGGLVKPGGSLKLSCAASGFAFSTYDMSWVRQTPEKRLEWVAYISPGGGATYYPDTVKGRFTISRDNAKNTLYLQMTSLKSEDTAMYYCAGRRDYYGMDYWGQGTSVTVSS
VL: DVVMTQTPLSLPVSLGDQASISCRSSQSLVHSNGNTYLHWYLQKPGQSPKLLIYKVSNRFSGVPDRFSGSGSGTDFTLKISRVEAEDLGVYFCSQSTHVPWTFGGGTKLEIK
notes: Mouse hybridoma antibody purified from ascites; the tie is indirect; also called hybridoma CCTCC NO: C2018183
With B1 the percent inhibition [1] was 90%, the percent inhibition [2] was 9% and the percent inhibition [3] was 10%. It also gave a percent inhibition [4] of 16%, a percent inhibition [5] of 9% and a percent inhibition [6] of 3%. It also gave a percent inhibition [7] of 97%, a percent inhibition [8] of 94% and a percent inhibition [9] of 24%. It also gave a percent inhibition [10] of 91%, a percent inhibition [11] of 15% and a percent inhibition [12] of 15%. For the same binder, the percent inhibition [13] was -1%, the percent inhibition [14] was 3% and the percent inhibition [15] was 2%. The percent inhibition [16] was -10%, the percent inhibition [17] was 100% and the percent inhibition [18] was 8%. For the same binder, the percent inhibition [19] was 22%, the percent inhibition [20] was 3% and the percent inhibition [21] was 6%. It also gave a percent inhibition [22] of -3%, a percent inhibition [23] of 2% and a percent inhibition [24] of -2%. It also gave a percent inhibition [25] of 9%, a percent inhibition [26] of 19% and a percent inhibition [27] of -1%. For the same binder, the percent inhibition [28] was 3%, the percent inhibition [29] was 19% and the percent inhibition [30] was -2%.
